This note sets out measurements from patent US20220056104A1 (Janssen / Centocor, published 2022).

Experiment [1] has as its target T1, Recombinant DR3-Fc (R&D Systems, cat. #943-D3) (UniProt Q93038 25-199, limits assumed).
T1 construct: dimeric MW~92 kDa; also called DR3 receptor; Fc-DR3; not shown: Fc part of the bought fusion
T1 sequence (looked up): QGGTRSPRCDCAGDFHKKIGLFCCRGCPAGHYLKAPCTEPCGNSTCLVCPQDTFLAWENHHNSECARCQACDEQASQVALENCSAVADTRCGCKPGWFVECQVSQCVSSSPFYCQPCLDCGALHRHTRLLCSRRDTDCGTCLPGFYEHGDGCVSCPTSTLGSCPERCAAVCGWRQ
Nature of the experiment: ELISA, DR3-Fc immobilized. Here is the method: All ELISA-based measurements were collected in triplicate, and error values report the standard error between measurements. Recombinant DR3-Fc (R&D Systems, cat. #943-D3), dimeric MW˜92 kDa, was non-specifically immobilized onto plates (Nunc maxisorp, cat. #436110) in 100 μL DR3-Fc, diluted to 10 μg/mL onto a 96-well White Maxisorp plate (Nunc, cat #436110) (O/N, 4° C.). Plates were block for 1 hour at room temperature with 250 μl/well of casein buffer and blocking buffer was removed. 50 μL of TL1A variants were diluted in StartingBlock PBS (Thermo Fisher Scientific), at 25 μg/mL, diluting 3× over each well, according to the plate map description for 20160623) per well on a 96-well White Maxisorp plate (Nunc, cat #: 436110) (overnight at 4° C.).
Plates were washed three times with TBST. 100 μl/well polyclonal rabbit anti-human TL1A-biotin antibody (diluted 1:1000 in Starting Block PBS) was added and plates were incubated for 1 hour at room temperature with shaking at 150 rpm. TL1A-biotin antibody was removed and 100 μl/well streptavidin-HRP conjugate (diluted 1:10,000 in Starting Block PBS) was added to plates. Plates were incubated for 1 hour at room temperature with shaking at 150 rpm. Plates were washed three times with TBST. 100 μl/well POD Chemiluminescence substrate (Roche, cat #: 11582950001) was added immediately prior to reading plate luminescence using a Molecular Devices M5 plate reader with a delay setting of 100 ms.
Variants of TL1A were generated and tested for binding to DR3 and DcR3 by ELISA as described.

For another experiment, the target named is T2, DcR3 (UniProt O95407 30-300, limits assumed).
T2 construct: the construct is not described; also called decoy receptor DcR3; TNFRSF6B
T2 sequence (looked up): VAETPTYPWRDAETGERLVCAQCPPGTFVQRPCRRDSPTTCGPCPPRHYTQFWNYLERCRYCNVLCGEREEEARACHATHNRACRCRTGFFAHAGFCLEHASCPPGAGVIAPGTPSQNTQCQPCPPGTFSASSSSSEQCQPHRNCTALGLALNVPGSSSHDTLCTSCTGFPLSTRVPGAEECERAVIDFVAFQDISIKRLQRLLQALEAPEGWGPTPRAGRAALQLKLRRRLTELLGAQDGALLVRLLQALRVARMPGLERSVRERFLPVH
Put plainly: ELISA, DcR3. For orientation: In an ELISA, binding on a coated surface is turned into a signal by an enzyme label.

Broadly, the EC50 is the concentration at which the effect is half-maximal.

B1: TL1W96 (His-TEV-TL1A R170E) (ligand)
chain: HHHHHHENLYFQGLKGQEFAPSHQQVYAPLRADGDKPRAHLTVVRQTPTQHFKNQFPALHWEHELGLAFTKNRMNYTNKFLLIPESGDYFIYSQVTFRGMTSECSEIRQAGEPNKPDSITVVITKVTDSYPEPTQLLMGTKSVCEVGSNWFQPIYLGAMFSLQEGDKLMVNVSDISLVDYTKEDKTFFGAFLL
notes: also called TL1W96 (R170E)
As to B1, in experiment [1], the EC50 turned out to be 87 nM and the “Rel EC50” value was 3.3 ratio (head: nM). For the same molecule, in the experiment with DcR3, a half-maximal effect (EC50) was put at 16.4 nM and the “Rel EC50” value is 3.6 ratio (head: nM).

B2: TL1W103 (His-TEV-TL1A T185A) (ligand)
chain: HHHHHHENLYFQGLKGQEFAPSHQQVYAPLRADGDKPRAHLTVVRQTPTQHFKNQFPALHWEHELGLAFTKNRMNYTNKFLLIPESGDYFIYSQVTFRGMTSECSEIRQAGRPNKPDSITVVITKVADSYPEPTQLLMGTKSVCEVGSNWFQPIYLGAMFSLQEGDKLMVNVSDISLVDYTKEDKTFFGAFLL
notes: also called TL1W103 (T185A)
As for B2, in experiment [1], the EC50 amounted to 57.9 nM and the “Rel EC50” value was 2.2 ratio (head: nM). Also, in the experiment with DcR3, the EC50 was determined as 11.5 nM and the “Rel EC50” value was 2.5 ratio (head: nM).

B3: TL1W102 (His-TEV-TL1A S176K) (ligand)
chain: HHHHHHENLYFQGLKGQEFAPSHQQVYAPLRADGDKPRAHLTVVRQTPTQHFKNQFPALHWEHELGLAFTKNRMNYTNKFLLIPESGDYFIYSQVTFRGMTSECSEIRQAGRPNKPDKITVVITKVTDSYPEPTQLLMGTKSVCEVGSNWFQPIYLGAMFSLQEGDKLMVNVSDISLVDYTKEDKTFFGAFLL
notes: also called TL1W102 (S176K)
B3: in experiment [1], the 50% effective concentration (EC50) came out at 182 nM and the “Rel EC50” value is 6.9 ratio (head: nM). In the experiment with DcR3, a half-maximal response (EC50) required 29.2 nM and the “Rel EC50” value is 6.3 ratio (head: nM).

B4: TL1W100 (His-TEV-TL1A S176L) (ligand)
chain: HHHHHHENLYFQGLKGQEFAPSHQQVYAPLRADGDKPRAHLTVVRQTPTQHFKNQFPALHWEHELGLAFTKNRMNYTNKFLLIPESGDYFIYSQVTFRGMTSECSEIRQAGRPNKPDLITVVITKVTDSYPEPTQLLMGTKSVCEVGSNWFQPIYLGAMFSLQEGDKLMVNVSDISLVDYTKEDKTFFGAFLL
notes: also called TL1W100 (S176L)
Regarding B4, the EC50 in experiment [1] was 324 nM; in the experiment with DcR3, 15 nM. In addition, the “Rel EC50” value in experiment [1] is 12.4 ratio (head: nM); in the experiment with DcR3, 3.3 ratio (head: nM).

B5: TL1W97 (His-TEV-TL1A K173S) (ligand)
chain: HHHHHHENLYFQGLKGQEFAPSHQQVYAPLRADGDKPRAHLTVVRQTPTQHFKNQFPALHWEHELGLAFTKNRMNYTNKFLLIPESGDYFIYSQVTFRGMTSECSEIRQAGRPNSPDSITVVITKVTDSYPEPTQLLMGTKSVCEVGSNWFQPIYLGAMFSLQEGDKLMVNVSDISLVDYTKEDKTFFGAFLL
notes: also called TL1W97 (K173S)
On to B5, for which, in experiment [1], the EC50 worked out at 131 nM and the “Rel EC50” value is 5 ratio (head: nM). Moreover, in the experiment with DcR3, the EC50 is 6.7 nM and the “Rel EC50” value was 1.5 ratio (head: nM).

B6: TL1W98 (His-TEV-TL1A K173R) (ligand)
chain: HHHHHHENLYFQGLKGQEFAPSHQQVYAPLRADGDKPRAHLTVVRQTPTQHFKNQFPALHWEHELGLAFTKNRMNYTNKFLLIPESGDYFIYSQVTFRGMTSECSEIRQAGRPNRPDSITVVITKVTDSYPEPTQLLMGTKSVCEVGSNWFQPIYLGAMFSLQEGDKLMVNVSDISLVDYTKEDKTFFGAFLL
notes: also called TL1W98 (K173R)
In the case of B6, in experiment [1], the concentration for a half-maximal effect (EC50) stood at 2050 nM and the “Rel EC50” value is 78.4 ratio (head: nM). Besides, in the experiment with DcR3, the midpoint of the response, the EC50, lay at 27.8 nM and the “Rel EC50” value was 6 ratio (head: nM).

B7: TL1W99 (His-TEV-TL1A S176A) (ligand)
chain: HHHHHHENLYFQGLKGQEFAPSHQQVYAPLRADGDKPRAHLTVVRQTPTQHFKNQFPALHWEHELGLAFTKNRMNYTNKFLLIPESGDYFIYSQVTFRGMTSECSEIRQAGRPNKPDAITVVITKVTDSYPEPTQLLMGTKSVCEVGSNWFQPIYLGAMFSLQEGDKLMVNVSDISLVDYTKEDKTFFGAFLL
notes: also called TL1W99 (S176A)
As to B7, in experiment [1], the EC50 was 34.8 nM and the “Rel EC50” value was 1.3 ratio (head: nM). Also, in the experiment with DcR3, a half-maximal response (EC50) required 11.5 nM and the “Rel EC50” value was 2.5 ratio (head: nM).
